According to IntAct's records for PubMed 23353685:

B1: Beta-arrestin-1 (Homo sapiens), P49407 (parent)
chain: MGDKGTRVFKKASPNGKLTVYLGKRDFVDHIDLVDPVDGVVLVDPEYLKERRVYVTLTCAFRYGREDLDVLGLTFRKDLFVANVQSFPPAPEDKKPLTRLQERLIKKLGEHAYPFTFEIPPNLPCSVTLQPGPEDTGKACGVDYEVKAFCAENLEEKIHKRNSVRLVIRKVQYAPERPGPQPTAETTRQFLMSDKPLHLEASLDKEIYYHGEPISVNVHVTNNTNKTVKKIKISVRQYADICLFNTAQYKCPVAMEEADDTVAPSSTFCKVYTLTPFLANNREKRGLALDGKLKHEDTNLASSTLLREGANREILGIIVSYKVKVKLVVSRGGLLGDLASSDVAVELPFTLMHPKPKEEPPHREVPENETPVDTNLIELDTNDDDIVFEDFARQRLKGMKDDKEEEEDGTGSPQLNNR

Variants of: B1
Conditions: with gnas1_human GNAS
MGDKGTRVFKKASPNGKLTVYLGKRDFVDHIDKVDPVDGVVLVDPEYLKERRVYVTLTCAFRYGREDLDVLGLTFRKDLFVANVQSFPPAPEDKKPLTRLQERLIKKLGEHAYPFTFEIPPNLPCSVTLQPGPEDTGKACGVDYEVKAFCAENLEEKIHKRNSVRLVIRKVQYAPERPGPQPTAETTRQFLMSDKPLHLEASLDKEIYYHGEPISVNVHVTNNTNKTVKKIKISVRQYADICLFNTAQYKCPVAMEEADDTVAPSSTFCKVYTLTPFLANNREKRGLALDGKLKHEDTNLASSTLLREGANREILGIIVSYKVKVKLVVSRGGLLGDLASSDVAVELPFTLMHPKPKEEPPHREVPENETPVDTNLIELDTNDDDIVFEDFARQRLKGMKDDKEEEEDGTGSPQLNNR [L33K] was tested, and the “effect of a mutation on the interaction” value was “decreasing interaction”.
